Numbering of substitutions follows the chain as printed.
B1: 5p-1 (VHH)
VHH: QVQLVESGGGLVQAGGSLRLSCAVSGRTGNRWPMGWFRQAPGKEREFVATISWSDSRTYYADSVKGRFTISRDNAKNTVFLQMASLKPEDTAVYYCAAAHARVYGANWSSSNRDDYDSWGQGTQVTVSS
B2: 5p-2 (VHH)
VHH: B1 VHH with N30S, S71A, A101G, S111T, D114Y
B3: 4P-1 (VHH)
VHH: B1 VHH with Q1D, V24A, N30S, W32Y, D114Y
B4: 5p-5 (VHH)
VHH: B1 VHH with H100T
B5: 5p-61 (VHH)
VHH: QVQLVESGGGLVQAGGSLRLACAGSGGTFSSYIMAWFHQAPGKEREFIAGISKTGSDTYYADSVKGRFTISRDNAKNTVYLQMNSLKPEDTAVYYCAARRGPLITTSRLHYDFWGQGTQVTVSS
B6: 5p-25 (VHH)
VHH: HVQLVESGGGLVQAGGSLRLSCAASGHISSRYAMAWFRQGPGKERDFVAGMSSGASTFYAESVKGRFTLSRDNAKNAMYLQMNSLKPEDTAVYYCAADSSPLRYGLSYSSNRYDYWGQGTQVTVSS
B7: 5p-64 (VHH)
VHH: QVQLVESGGGLVQAGGSLRLSCAASGRTFSTYAMAWFRQAPGKEREFVAGVARSADTTYYGDSVKGRFTISRDNAKNEVNLQMSSLKPEDTAVYYCAARSVIQYGIVPGNDFHYEYWGQGTQVTVSS
notes: class V psNb
B8: 5p-175 (VHH)
VHH: B7 VHH with G105S
B9: 5p-63 (VHH)
VHH: DVQLVESGGGLVQAGGSLRLSCAASGRSFSTYAMGWFRQAPGKEREFVAGVARSASTTYYTDSVKGRFTISRDNAKNEVYLQMNSLKPEDTAVYYCAARSVIQDTVVPGNPFHYEYWGQGTQVTVSS
B10: 4P-92 (VHH)
VHH: QVQLVESGGGLVQTGGSLRLSCAVSGYTFSTFPTAWFRQAPGKEREFVAGIRWNGGSRDYTEYADFVKGRFTISRDNAKNMVYLQMISLKPEDTALYYCAASHGVIDGTSANDYRYWGQGTQVTVSS
B11: 5p-13 (VHH)
VHH: HVQLVESGGGLVQPGGSLRLSCVASGLTFSRYTMAWFRQAPGKDRIFVAAVSKPGGSTYYADSVKGRFTISRDNAKNTVYLQMNSLKPDDTAVYSCAADLTVLLTANPAHYNYWGHGTQVTVSS
B12: 5p-40 (VHH)
VHH: B11 VHH with H1D, G16D, K76Q, D99G, H116Q
B13: 5p-14 (VHH)
VHH: B11 VHH with H1Q, D44E, I46V, M83T, N84S, S85R, K87N, A109G, N112K, H116Q
B14: 5p-58 (VHH)
VHH: HVQLVESGGGLVQAGESLRLLCVASGSIDSINAMGWFRQAPGKQRELVASISNMHTTMYAESVKGRFTISRDNFKNTADLQMNSLKPEDTAIYFCNLRQGCSYNGCDEYWGQGTQVTVSS
B15: 5p-165 (VHH)
VHH: B14 VHH with L21S, D29S, M54I, M58L, N73T, F74A, N83D, F94Y, G100D
B16: 5p-167 (VHH)
VHH: B14 VHH with H1Q, E16G, F74A, G100R
B17: 5p-59 (VHH)
VHH: QVQLVESGGGLVQAGGSLRLSCAVSGRTISTFGMAWFRQAPGKVREFVATITRDEDLTLYADSVKGRFTISRDTAKNTVFLQMNSLKIEDTALYYCAVRRDDSWGYSRQSIEYDYWGQGTQVTVSS
B18: 5p-47 (VHH)
VHH: DVQLVESGGGLVQAGGSLRLSCAASGRTFTFNRFAMGWFRQAPEKEREFVAAISRTGRSTEYADSVKGRFAISRDNTKNTVYLQMNSLKPEDTAVYYCAALEAPLLHLIATQRRQYEYWGQGTQVTVSS
B19: 5p-26 (VHH)
VHH: DVQLVESGGGLVQAGGSLRLSCAASGRTLRSYNMGWFRQPPGKEREFVAALSWTGLGTYYADSVKGRFTISRDITKNTLYLQMDSLQPEDTANYYCAADSTLDRLHSAESDYRYWGQGTQVTVSS
B20: 4P-44 (VHH)
VHH: DVQLVESGGGLVQAGGSLRLSCAASGRTFSRYAAGWFRQAPGKEREFVAVIEWNGDSAYYADSVKGRFTISRDNAKNTVYLQMNRLKPEDTAVYICAVGGNHYSRSKYYTADEYDYWGQGTQVTVSS
B21: 5p-120 (VHH)
VHH: B20 VHH with D1H, N54D, T110N, A111L
B22: 5p-34 (VHH)
VHH: B20 VHH with D1Q, A23T, A61T, V64A, A75T, V98I, R105P, T110I
B23: 5p-121 (VHH)
VHH: B20 VHH with E46S, N54D, S57T, A61S, V79L, R105S, T110I
B24: 4P-71 (VHH)
VHH: B20 VHH with D1H, Y32F, E52D, D56G, E89G, V98I, S104D, R105P, K107R
B25: 5p-117 (VHH)
VHH: DVQLVESGGGLVQAGESLRLSCAASGRTFRNFAAGWFRQTPGKDREFVAVIEYNGDSAYYADSVKGRFTISRDNAKNTVYLQMNRLKPGDTAVYICAIGGNHYDPSKYYIADEYDYWGQGTQVTVSS
B26: 5p-119 (VHH)
VHH: B20 VHH with D1Q, G26R, R31N, D56E, V93I, V98I, T110I
B27: 4P-42 (VHH)
VHH: B20 VHH with D1H, N54D, S57N, R105P, S106N
B28: 5p-68 (VHH)
VHH: QVQLVESGGGLVQAGGSLRLSCVASGRTFSTSHMGWFRQAPGKEREFVAVISRSGSSTLDADSVKGRFTISRDNAKNTVYLQMNSLKPEDTAVYYCAGSRTAGLTSNRFLYDSWGQGTQVTVSS
B29: 5p-3 (VHH)
VHH: QVQLVESGGGLVQAGDSLRLSCAASGRTISTFPMGWFRQAPGKEREFVATITRTGFGTYYSDSVKGRFTISRDNAKNTVFLQMNSLKPEDTALYYCAAAKTTDWVTRAPREMHEYAYWGQGTQVTVSS
B30: 4P-46 (VHH)
VHH: HVQLVESGGGLVQAGGSLRLSCAASRIFSTSAMGWFRQAPGKEREFVAAISWSGTNTHYADSVKGRFAISTDNAKNTVYLQMNSLKPEDTAVYYCAQGGWGISQPIEVDYWGKGTQVTVSS
B31: 4P-47 (VHH)
VHH: B30 VHH with S25D, R26A, I27R, T55A, S62T, A68T, N73T, S103T, E107S
B32: 5p-128 (VHH)
VHH: B30 VHH with E45Q, A49G, I50T, S51D, T57I, I102V
B33: 5p-124 (VHH)
VHH: B30 VHH with G16D, T55G, T57V, A60L, T71A, A74S, N76S, Y79F, S103R, P105V
B34: 5p-127 (VHH)
VHH: B30 VHH with H1E, N56D, D61N, N73A, K86E, I102V, S103R, I106V
B35: 5p-37 (VHH)
VHH: B30 VHH with H1Q, A60T, S62P, N76S, S103R
B36: 5p-125 (VHH)
VHH: B30 VHH with G16D, S62P, I102L, S103R

Columns and labels:
[1] = target: RBDSARS-CoV-2 (SARS-CoV-2 S protein residues 319-539, C-terminal His-tag) (SARS-CoV-2, UniProt P0DTC2 319-539); assay: ELISA
[2] = target: RBDSARS-CoV (SARS-CoV S protein residues 318-510, C-terminal His-tag) (SARS-CoV, UniProt P59594 318-510); assay: ELISA

Row | Binder | IC50 [1] | IC50 [2]
1 | B1 | 10 to 100 nM | 100 to 1000 nM
2 | B2 | 10 to 100 nM | 10 to 100 nM
3 | B3 | 10 to 100 nM | 1000 to 8000 nM
4 | B4 | 10 to 100 nM | 10 to 100 nM
5 | B5 | < 10 nM | 10 to 100 nM
6 | B6 | < 10 nM | < 10 nM
7 | B7 | < 10 nM | < 10 nM
8 | B8 | < 10 nM | < 10 nM
9 | B9 | < 10 nM | < 10 nM
10 | B10 | < 10 nM | 1000 to 8000 nM
11 | B11 | < 10 nM | < 10 nM
12 | B12 | < 10 nM | < 10 nM
13 | B13 | < 10 nM | < 10 nM
14 | B14 | < 10 nM | 1000 to 8000 nM
15 | B15 | < 10 nM | 10 to 100 nM
16 | B16 | < 10 nM | > 8000 nM
17 | B17 | < 10 nM | > 8000 nM
18 | B18 | < 10 nM | 1000 to 8000 nM

Row | Binder | IC50 [1] | IC50 [2]
19 | B19 | < 10 nM | > 8000 nM
20 | B20 | < 10 nM | 100 to 1000 nM
21 | B21 | < 10 nM | < 10 nM
22 | B22 | < 10 nM | < 10 nM
23 | B23 | < 10 nM | < 10 nM
24 | B24 | < 10 nM | 10 to 100 nM
25 | B25 | < 10 nM | < 10 nM
26 | B26 | < 10 nM | < 10 nM
27 | B27 | < 10 nM | < 10 nM
28 | B28 | < 10 nM | 10 to 100 nM
29 | B29 | < 10 nM | 10 to 100 nM
30 | B30 | < 10 nM | 10 to 100 nM
31 | B31 | < 10 nM | < 10 nM
32 | B32 | < 10 nM | 10 to 100 nM
33 | B33 | < 10 nM | < 10 nM
34 | B34 | < 10 nM | < 10 nM
35 | B35 | < 10 nM | 10 to 100 nM
36 | B36 | < 10 nM | 10 to 100 nM

Source: patent US20250002563A1 (UNIVERSITY OF PITTSBURGH OF THE COMMONWEALTH SYSTEM OF …, published 2025)
